# Experimental data published in the supplement of paper PMC10567573.
# B1: EFHC1 (parent)
# chain: NIYYYLEDDSMSVIEPVVENSGIL
# B2: PLD5 (parent)
# chain: KRTYWPDLDAKIREALVLRSVRVR
# Variants of: B1
# Test: protein stability index of a GFP-peptide fusion (GPS, HEK-293T) (PSI 1-6); higher = more stable
# Details: c terminus: a fixed tail appended
# 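Note: lentivirally expressed fusions sorted by FACS into six bins by GFP to DsRed ratio, PSI derived from sequencing read proportions per bin multiplied by bin number.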
row,Variant,protein stability index
1,I2F,1.82
2,I2M,2.96
3,I2Y,2.07
4,I2Q,3.33
5,I2P,3.82
6,Y3T,3.64
7,Y3M,2.17
8,Y3A,2.85
9,Y3I,2.23
10,Y3D,4.08
11,E7N,2.72
12,E7Q,1.94
13,E7Y,2.31
14,E7I,2.12
15,E7F,1.13
16,E7R,2.52
17,E7H,1.3
18,M11F,1.7
19,M11G,2.05
20,M11C,2.19
21,M11Y,2.17
22,M11A,2.75
23,M11E,2.68
24,M11N,3.06

row,Variant,protein stability index
1,M11V,2.2
2,M11K,3.24
3,G22N,2.25
4,G22Y,1.5
5,G22P,2.14
6,G22C,1.62
7,G22E,2.71
8,Y5W,1.75
9,Y5E,3.62
10,Y5Q,2.92
11,Y5P,3.83
12,Y5N,2.78
13,N1R,1.32
14,N1S,2.19
15,N1H,1.74
16,N1E,2.48
17,N1P,2.15
18,N1Y,1.81
19,N1W,1.61
20,N1F,2.88
21,N1M,2.34
22,N1Q,2.83
23,S10N,3.24
24,S10H,2.09

row,Variant,protein stability index
1,S10D,2.36
2,S10F,2.3
3,S10Q,2.05
4,S10C,1.71
5,S10G,2.08
6,I14P,3.08
7,I14M,2.09
8,I14R,2.78
9,I14N,2.62
10,I14V,2.31
11,I14A,2.42
12,I14H,2.45
13,I14L,1.95
14,S21G,2.23
15,S21A,1.76
16,S21L,2.03
17,S21N,2.33
18,S21Q,2.6
19,S21K,2.12
20,S12F,2.77
21,S12M,1.8
22,S12G,2.37
23,S12V,1.86
24,S12E,2.64

row,Variant,protein stability index
1,S12R,1.73
2,Y4E,2.78
3,Y4I,1.49
4,Y4H,2.33
5,Y4G,3.49
6,Y4V,1.24
7,Y4R,2.51
8,Y4F,1.85
9,I23P,2.42
10,I23D,2.81
11,I23E,3.12
12,I23K,2.53
13,I23C,2.12
14,I23F,1.2
15,I23H,2.43
16,L6F,1.72
17,L6H,3.03
18,L6G,3.65
19,L6Y,2.22
20,L6Q,2.84
21,L6A,3.01
22,E19M,1.86
23,E19N,1.69
24,E19D,2.01

row,Variant,protein stability index
1,E19R,1.67
2,E19H,2.01
3,E19L,1.42
4,P16G,1.92
5,P16D,2.2
6,P16R,2.11
7,P16C,2.54
8,P16Y,1.42
9,P16W,2.61
10,P16I,2.75
11,P16M,2.57
12,P16A,2.38
13,P16N,1.65
14,P16Q,2.17
15,P16S,1.83
16,P16H,2.45
17,P16E,2.37
18,D8C,2.56
19,D8P,2.23
20,D8Y,2.03
21,D8A,1.94
22,D8K,1.6
23,D8N,2.01
24,D8S,2.6

row,Variant,protein stability index
1,V17C,1.85
2,V17I,1.62
3,V17Q,2.41
4,V17M,2.07
5,V17Y,1.72
6,V17R,1.98
7,V17T,2.32
8,N20C,1.93
9,N20H,1.79
10,N20L,3.52
11,N20G,2.77
12,N20S,2.13
13,E15I,3.11
14,E15K,2.34
15,E15S,1.7
16,E15Q,1.61
17,E15C,3.27
18,E15P,2.38
19,E15F,2.48
20,E15A,2.22
21,V18P,2.38
22,V18N,2.6
23,V18S,2.67
24,V18L,2.16

row,Variant,protein stability index
1,V18E,2.69
2,V13E,3.1
3,V13R,1.81
4,V13G,2.42
5,V13Q,2.35
6,V13A,1.72
7,V13F,2.16
8,V13T,2.21
9,V13L,2.52
10,D9Q,2.88
11,D9L,1.68
12,D9T,1.37
13,D9C,1.76
14,D9E,2.11
15,D9K,1.83
16,L24G,2.47
17,L24I,3.15
18,L24S,2.58
19,L24V,2.21
20,L24F,2.12
21,L24P,2.41
22,L24Q,2.36

# Variants of: B2
# Test: as above
# Details: c terminus: a fixed tail appended
row,Variant,protein stability index
1,E14K,1.68
2,E14C,1.46
3,E14A,1.09
4,E14H,1.27
5,E14S,1.13
6,E14G,2.75
7,E14T,2.42
8,E14Q,1.88
9,E14P,2.13
10,P6C,1.06
11,P6H,1.96
12,P6F,2.23
13,P6Q,3.34
14,P6S,1.67
15,P6K,1.25
16,P6A,2.54
17,P6G,1.82
18,P6W,3.99
19,P6D,1.28
20,R2H,1.54
21,R2M,1.77
22,R2T,2.63
23,R2V,2.43
24,R2W,1.32

row,Variant,protein stability index
1,R2N,2.14
2,R2Q,2.31
3,R2E,2.14
4,R2P,2.7
5,R2K,2.56
6,R2F,2.92
7,R2Y,1.09
8,A15E,2.26
9,A15W,1.62
10,A15Q,2.04
11,A15T,1.72
12,A15P,1.67
13,A15Y,2.11
14,A15V,1.04
15,A15N,1.51
16,A15K,1.9
17,D7F,1.58
18,D7E,1.02
19,D7V,1.23
20,D7T,2.39
21,D7S,2.02
22,D7P,3.44
23,D7A,1.87
24,D7Y,1.37

row,Variant,protein stability index
1,D7R,2.62
2,D7C,1.61
3,D7L,1.82
4,D7M,2.84
5,K1Y,1.05
6,K1D,2.06
7,K1T,1.93
8,K1M,1.79
9,K1H,2.25
10,K1G,2.53
11,K1N,2.21
12,K1P,1.79
13,K1S,1.84
14,K1L,1.6
15,K1E,2.58
16,K1F,2.55
17,K1C,1.46
18,K1R,1.92
19,L16P,2.02
20,L16G,1.31
21,L16D,2.8
22,L16I,1.95
23,L16H,2.94
24,L16N,2.61

row,Variant,protein stability index
1,W5H,2.9
2,W5C,1.5
3,W5N,1.96
4,W5A,1.86
5,W5I,3.62
6,W5V,4.52
7,W5K,2.01
8,W5S,2.66
9,W5T,1.58
10,W5D,1.73
11,W5R,2.1
12,W5Q,2.15
13,W5E,2.79
14,Y4V,3.54
15,Y4L,2.27
16,Y4P,1.9
17,Y4I,1.96
18,Y4Q,1.93
19,Y4C,1.85
20,Y4A,1.17
21,Y4H,2.25
22,Y4K,1.48
23,Y4W,1.75
24,Y4E,2.69

row,Variant,protein stability index
1,Y4T,1.82
2,Y4D,2.75
3,Y4S,1.67
4,Y4G,2.01
5,Y4F,1.41
6,R13Q,1.28
7,R13M,1.54
8,R13V,2.31
9,R13K,1.9
10,R13A,1.3
11,R13G,1.89
12,R13C,2.29
13,R13H,2.6
14,R13N,1.61
15,R13S,1.43
16,R13P,1.79
17,R13Y,1.65
18,K11H,1.29
19,K11T,2.42
20,K11E,2.17
21,K11M,1.04
22,K11R,1.47
23,K11D,2.29
24,K11Y,1.99

row,Variant,protein stability index
1,K11A,1.42
2,K11P,2.14
3,D9E,2.54
4,D9H,2.57
5,D9G,2.88
6,D9N,1.59
7,I12D,1.43
8,I12L,1.81
9,I12Q,2.54
10,I12A,2.01
11,I12R,2.78
12,I12E,2.76
13,I12H,2.19
14,I12K,2.41
15,I12Y,1.29
16,I12F,1.93
17,I12C,2.29
18,I12T,2.7
19,I12V,2.3
20,I12M,2.38
21,L8P,1.82
22,L8D,2.83
23,L8W,1.85
24,L8Y,3.05

row,Variant,protein stability index
1,L8R,3.06
2,L8H,2.47
3,L8E,2.94
4,L8Q,1.88
5,L8A,2.18
6,L8F,2
7,L8N,1.73
8,L8T,2.24
9,L8M,2.72
10,A10T,2.33
11,A10V,1.93
12,A10F,1.52
13,A10I,2.54
14,A10L,2.05
15,A10H,3.11
16,A10Y,2.61
17,A10P,2.36
18,T3E,1.28
19,T3Q,2.91
20,T3S,1.6
21,T3I,1.46
22,T3A,1.78
23,T3W,1.12
24,T3L,2.83
